To fix the notation:
T1: human TRBC1 (hTRBC1), construct BIM0444 (human, UniProt P01850 1-129)
T1 chain: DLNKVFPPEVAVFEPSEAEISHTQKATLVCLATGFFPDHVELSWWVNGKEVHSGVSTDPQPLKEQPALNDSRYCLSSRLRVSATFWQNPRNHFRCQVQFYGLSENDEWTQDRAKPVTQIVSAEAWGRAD

T2: NKp30 on KHYG-1 NK cells (human, UniProt O14931 19-201)
T2 chain: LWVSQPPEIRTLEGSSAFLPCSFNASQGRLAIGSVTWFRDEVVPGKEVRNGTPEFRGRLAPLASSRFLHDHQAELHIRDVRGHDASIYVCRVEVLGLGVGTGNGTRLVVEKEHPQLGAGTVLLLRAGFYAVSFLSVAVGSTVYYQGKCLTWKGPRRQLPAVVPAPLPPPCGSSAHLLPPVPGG

T3: TRBC1 on TRBC1+ Jurkat cells (human, UniProt P01850 1-176)
T3 chain: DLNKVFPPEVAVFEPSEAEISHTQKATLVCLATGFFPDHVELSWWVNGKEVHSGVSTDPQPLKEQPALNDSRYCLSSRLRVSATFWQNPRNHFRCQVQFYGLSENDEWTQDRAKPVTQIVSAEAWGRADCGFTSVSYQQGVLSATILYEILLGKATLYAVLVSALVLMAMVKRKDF

B1: JOVI.1 Fab BIM0446 (Fab, V domains shown)
VH: EVRLQQSGPDLIKPGASVKMSCKASGYTFTGYVMHWVKQRPGQGLEWIGFINPYNDDIQSNERFRGKATLTSDKSSTTAYMELSSLTSEDSAVYYCARGAGYNFDGAYRFFDFWGQGTTLTVSS
VL: DVVMTQSPLSLPVSLGDQASISCRSSQRLVHSNGNTYLHWYLQKPGQSPKLLIYRVSNRFPGVPDRFSGSGSGTDFTLKISRVEAEDLGIYFCSQSTHVPYTFGGGTKLEIK
B2: humanized JOVI.1 Fab BIM0460 (Fab, V domains shown)
VH: QVQLVQSGAEVKKPGSSVKVSCKASGYTFTGYVMHWVRQAPGQGLEWMGFINPYNDDIQSNERFRGRVTITSDKSTTTAYMELSSLRSEDTAVYYCARGAGYNFDGAYRFFDFWGQGTLVTVSS
VL: B1 VL with S14T, D17Q, Q18P, L42Q, K44R, K50R, L88V, I90V, L109V
B3: BJM1042 (anti-TRBC1/NKp30 bispecific antibody, N297A) (bispecific antibody)
heavy: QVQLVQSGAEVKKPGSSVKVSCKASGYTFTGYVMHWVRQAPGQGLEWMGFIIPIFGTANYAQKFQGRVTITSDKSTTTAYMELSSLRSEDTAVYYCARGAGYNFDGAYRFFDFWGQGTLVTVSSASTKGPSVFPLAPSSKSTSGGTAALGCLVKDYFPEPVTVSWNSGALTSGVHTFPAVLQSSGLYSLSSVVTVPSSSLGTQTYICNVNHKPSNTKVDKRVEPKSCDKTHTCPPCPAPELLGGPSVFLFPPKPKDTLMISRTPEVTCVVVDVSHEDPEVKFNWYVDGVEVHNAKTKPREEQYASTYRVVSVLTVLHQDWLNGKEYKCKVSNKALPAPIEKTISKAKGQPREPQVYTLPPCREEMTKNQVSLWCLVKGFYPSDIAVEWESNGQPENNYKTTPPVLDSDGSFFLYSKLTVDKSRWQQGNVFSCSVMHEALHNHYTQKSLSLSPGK
light: DVVMTQSPLSLPVTLGQPASISCRSSQRLVHSNGNTYLHWYQQRPGQSPRLLIYRVSNRFPGVPDRFSGSGSGTDFTLKISRVEAEDVGVYFCSQSTHVPYTFGGGTKVEIKRTVAAPSVFIFPPSDEQLKSGTASVVCLLNNFYPREAKVQWKVDNALQSGNSQESVTEQDSKDSTYSLSSTLTLSKADYEKHKVYACEVTHQGLSSPVTKSFNRGEC
scFv: EIQLLESGGGLVQPGGSLRLSCAVSGFSITTTGYHWNWVRQAPGKGLEWVGYIYSSGSTSYNPSLKSRFTISRDTSKNTFYLQMNSLRAEDTAVYYCARGDWHYFDYWGQGTMVTVSSGGGGSGGGGSGGGGSGGGGSDSVTTQSPLSLPVTLGQPASISCSGEKLSDKYVHWYQQRPGQSPRMLIYENDRRPSGVPDRFSGSNSGNDATLKISRVEAEDVGVYFCQFWDSTNSAVFGGGTKVEIKDKTHTCPPCPAPELLGGPSVFLFPPKPKDTLMISRTPEVTCVVVDVSHEDPEVKFNWYVDGVEVHNAKTKPREEQYASTYRVVSVLTVLHQDWLNGKEYKCKVSNKALPAPIEKTISKAKGQPREPQVCTLPPSREEMTKNQVSLSCAVKGFYPSDIAVEWESNGQPENNYKTTPPVLDSDGSFFLVSKLTVDKSRWQQGNVFSCSVMHEALHNHYTQKSLSLSPGK
B4: BJM1052 (anti-TRBC1/NKp30 bispecific antibody, N297A) (bispecific antibody)
heavy: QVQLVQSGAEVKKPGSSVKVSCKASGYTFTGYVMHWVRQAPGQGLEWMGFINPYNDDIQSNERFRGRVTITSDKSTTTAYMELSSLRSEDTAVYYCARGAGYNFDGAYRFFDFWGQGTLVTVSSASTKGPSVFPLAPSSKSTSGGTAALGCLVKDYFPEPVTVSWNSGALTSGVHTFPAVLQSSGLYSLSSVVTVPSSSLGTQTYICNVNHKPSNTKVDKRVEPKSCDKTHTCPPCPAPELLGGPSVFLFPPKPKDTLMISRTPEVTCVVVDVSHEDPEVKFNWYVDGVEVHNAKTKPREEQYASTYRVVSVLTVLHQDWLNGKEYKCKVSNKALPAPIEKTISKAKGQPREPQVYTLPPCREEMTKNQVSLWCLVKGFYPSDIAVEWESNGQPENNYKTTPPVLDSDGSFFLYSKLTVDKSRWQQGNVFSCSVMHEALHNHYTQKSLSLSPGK
light: B3 light
scFv: B3 scFv
B5: BJM1038 (antibody)
chain 1: not shown
chain 2: B3 light
chain 3: EIQLLESGGGLVQPGGSLRLSCAVSGFSITTTGYHWNWVRQAPGKGLEWVGYIYSSGSTSYNPSLKSRFTISRDTSKNTFYLQMNSLRAEDTAVYYCARGDWHYFDYWGQGTMVTVSSGGGGSGGGGSGGGGSGGGGSSSETTQPPSVSVSPGQTASITCSGEKLSDKYVHWYQQKPGQSPVMVIYENDRRPSGIPERFSGSNSGNTATLTISGTQAMDEADYFCQFWDSTNSAVFGGGTQLTVLDKTHTCPPCPAPELLGGPSVFLFPPKPKDTLMISRTPEVTCVVVDVSHEDPEVKFNWYVDGVEVHNAKTKPREEQYASTYRVVSVLTVLHQDWLNGKEYKCKVSNKALPAPIEKTISKAKGQPREPQVCTLPPSREEMTKNQVSLSCAVKGFYPSDIAVEWESNGQPENNYKTTPPVLDSDGSFFLVSKLTVDKSRWQQGNVFSCSVMHEALHNHYTQKSLSLSPGK
B6: BJM1048 (antibody)
chain 1: not shown
chain 2: B3 light
chain 3: B5 chain 3
B7: BJM1079 (BJM0411 Parental) (antibody, V domains shown)
VH: EIQLLESGGGLVQPGGSLRLSCAVSGFSITTTGYHWNWVRQAPGKGLEWVGYIYSSGSTSYNPSLKSRFTISRDTSKNTFYLQMNSLRAEDTAVYYCARGDWHYFDYWGQGTMVTVSS
VL: DSVTTQSPLSLPVTLGQPASISCSGEKLSDKYVHWYQQRPGQSPRMLIYENDRRPSGVPDRFSGSNSGNDATLKISRVEAEDVGVYFCQFWDSTNSAVFGGGTKVEIK
B8: BJM1078 (BJM0407 Parental) (antibody, V domains shown)
VH: B7 VH
VL: SSETTQPPSVSVSPGQTASITCSGEKLSDKYVHWYQQKPGQSPVMVIYENDRRPSGIPERFSGSNSGNTATLTISGTQAMDEADYFCQFWDSTNSAVFGGGTQLTVL
B9: BJM0889 (single arm anti-TRBC1 antibody, N297A) (antibody, V domains shown)
VH: B2 VH
VL: B1 VL with S14T, D17Q, Q18P, L42Q, K44R, K50R, L88V, I90V, L109V

Changes are numbered by the printed parent chain. In names and notes the source's numbering stands.

The target of one assay is T1, human TRBC1 (hTRBC1), construct BIM0444. The experiment in a line: Octet BLI. For orientation: Biolayer interferometry detects binding as a change in optical thickness at a sensor tip.
The molecule B1 had a Kd of 4 nM.
Still for that read-out and setting: the figure for B2 is 9 nM.

For a further assay, the target named is T2, NKp30 on KHYG-1 NK cells. The experiment in a line: FACS cell binding.
For B3, the half-maximal effective concentration (EC50) came out at 9.48 nM. This counts as single-digit nanomolar.
The same measure, in the same setting: for B4 the value was 6.61 nM; for B5, 7.99 nM.
Still for that read-out and setting: for B6 the value was 7.66 nM; for B7, 5.36 nM.
The same measure, in the same setting: the figure for B8 is 5.2 nM.

The next assay has as its target T3, TRBC1 on TRBC1+ Jurkat cells. In words: FACS cell binding.
B3: the midpoint of the response, the EC50, lay at 61 nM.
On the same count and under the same terms, for B4 the value was 4.55 nM; for B5, 60.5 nM; for B6, 8.29 nM.
On the same count and under the same terms, the figure for B9 is 5.26 nM.

In general, Kd refers to the constant that tells how readily two partners part at equilibrium. Lower therefore signals a tighter complex. Broadly, the EC50 is the concentration that produces a half-maximal response.

The values are drawn from patent US20230357395A1 (published 2023).
